The series in a line: amyloid nucleation score (Sup35N fusion, yeast selection) (log enrichment); library NNK1; higher = more nucleation; inactive = no reads after selection. In outline: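 For the nucleation score, DiMSum gave the log enrichment of output over input reads, centred on the mode score of non-aggregating sequences. Psi-negative yeast expressing Sup35N fused to peptides of 20 random codons were induced with 100 μM copper sulfate for 24 hours and grown 7 days at 30°C on medium lacking adenine and uracil. Input and output plasmid inserts were Illumina-sequenced, and sequences with under 100 input reads were excluded.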

± gives the uncertainty stated by the source.

For GRLPLTKWASMTRVLMYLLR, the amyloid nucleation score was 0.652 ± 0.47.
In the case of QTRSPQFKPAAYRVFLVDLC it was -0.159 ± 0.77; in that of DETDQNTFTTSIV, 1.23 ± 0.28.
In the case of CLLFNGNKLVCSHILMRKNG it was 0.443 ± 0.23.
As for LAYKNSLWGLLWKRF, the figure is -0.011 ± 0.49; as for RMVTTIIERVSIVCMKPSYR, 1.35 ± 0.88; as for VWKDRPEMYSCGHCIEMRAE, 0.039 ± 0.37.
As for ESMLSSIRGLHNG, the amyloid nucleation score is -0.851 ± 1.7.
As to YPGEGEPKKYLPYNRLCWRS, the amyloid nucleation score is 1.08 ± 0.69.
In the case of SIVNVDVALSHLCSYQRSRM it was 4.11 ± 0.1; in that of FSITLTPHRGSVMNIYTANV, 1.59 ± 0.17; in that of NVMSSPCIRVGMLRMGVTKS, 1.62 ± 0.51.
In the case of YRFKFGVKWLAPNFLPAFGY it was “inactive”.
As for MREGFTLFVDKDCNAGTYTW, the entry is “inactive”; as for MGCWCLASRDLTKT, -0.485 ± 1.
For WLLMSCTHCSCLKMRIHWKG, the amyloid nucleation score was -1.1 ± 2.4.
In the case of CSDNV it was 1.01 ± 0.49; in that of GIAWALKLRLVDAYPGMSMS, 0.168 ± 0.72.
As for VTDEFCPVLSGG, the figure is 0.317 ± 0.52; as for VKMFMD, 0.644 ± 0.59; as for INDRVDGSVIEMSLCRYG, 1.19 ± 0.8.
As for CCCISDHESNCDSDQSRLGF, the figure is 0.585 ± 0.36.
WYCPATH displayed an amyloid nucleation score of 0.836 ± 0.97.
The substance FRCLTVYCWF gave an amyloid nucleation score of 7.894 ± 0.044.
In the case of NLRIGFVEQLSSGVLDGPDD it was 0.471 ± 0.97; in that of CLLIVRISNSKFVVPPTVFA, 0.608 ± 0.49.
As for RSFNYVLSTL, the figure is 0.45 ± 0.42.
EKVGLTCQRGIVLVDNIFMQ returned an amyloid nucleation score of 6.986 ± 0.045.
As for RVFQSNPCGT, the figure is 0.109 ± 1.4; as for TYYGVSPDTASNAACLYPRH, -0.746 ± 1.9.
In the case of IWVHHRSVTKSWLKMVAWNH it was -0.514 ± 0.43; in that of SGLFPVLGEHGNHRVSGSI, -1.4 ± 1.6.
In the case of FIYVDSGDKNGYCACDKFLP it was 6.059 ± 0.052; in that of EGACVKSRVWDRINVTGRSR, 1.25 ± 0.68; in that of DGQPLLMGEHYSLGITLM, 1.1 ± 0.81.
As to KSLMRTTMSCQSDYEDQKDV, the amyloid nucleation score came out at 0.883 ± 0.78.
In the case of PGRSSRLR it was -0.071 ± 1.1; in that of ADKTGGPVTNITFLAWPWWG, 3.95 ± 0.13; in that of FVKVLDFYLMLSCHTICLFG, -0.832 ± 1.5.
MTVKSAPK: the amyloid nucleation score came to 0.258 ± 0.55.
As for VSTVLARSVWLWDTPFLRSE, the figure is -0.079 ± 0.34.
As for EIWWYKVERAVLTVFREDCL, the entry is “inactive”; as for VLSCLPHAINFFYPSRSK, 1.05 ± 0.35.
In the case of APFHEGNIFRAVTFKTYPSR it was -0.422 ± 0.72; in that of CSNRWCLKTRVERVMERGSV, 0.218 ± 0.54; in that of RLLPGFERGVLYYWA, 0.568 ± 0.43.
In the case of VRCTFLVKVDWTFYKASRPR, the amyloid nucleation score came to 0.087 ± 0.47.
In the case of LWYSFNVHTVHYYQCSDIYS it was -0.142 ± 0.26; in that of KENQSIRFWVD, “inactive”.
For the substance SDVWGWWGRSRVTADYFADV, the amyloid nucleation score was -1.17 ± 1.7.
As for TSQENTDINGPCKLTSVLQR, the figure is 0.436 ± 0.68; as for QFMIICHMMVNNW, 7.003 ± 0.044; as for VAEEYSN, “inactive”.
In the case of KCMEIILVLRVVRKWGSGGM it was 0.654 ± 0.97.
As for RLSIFRLYPLLCRRG, the figure is 0.163 ± 0.34.
SDASHHHRYRESHDYCFFRK registered an amyloid nucleation score of 0.272 ± 0.4.
LRSLAPCVLGKTGESEPRAF showed an amyloid nucleation score of 0.056 ± 0.58.
In the case of VATRYWSRLCTMFVHSTRTT it was “inactive”; in that of FRVWSAFPYVGKSSPFGHSS, -0.89 ± 0.53; in that of CRLVVMVIVQLHGIDFELAL, 0.951 ± 0.54.
In the case of WFWMYGKGKESQSVVNGGGT it was 0.861 ± 0.53; in that of IPLGPGLPACINEGLKNPVS, -0.439 ± 0.67; in that of FTMYKCMCSMGRRNSAGGAS, -0.325 ± 0.98.
As for LGYEGWYTRVIYGKVALWME, the figure is -0.215 ± 0.59; as for SLAQFRWVV, 1.52 ± 0.13.
On to LNLWPIDANVGWLWKRWRWR, for which the amyloid nucleation score is -0.538 ± 2.1.
Turning to TMQFFHERGYLLKSRYAGAW, the amyloid nucleation score is -0.273 ± 0.98.
As for EISQNTL, the figure is -0.672 ± 0.32.

Source of the values: the supplement of paper PMC12042874.
